T1: TCF/Pangolin HMG + C-clamp fragment (UniProt P91943 273-400)
T1 sequence: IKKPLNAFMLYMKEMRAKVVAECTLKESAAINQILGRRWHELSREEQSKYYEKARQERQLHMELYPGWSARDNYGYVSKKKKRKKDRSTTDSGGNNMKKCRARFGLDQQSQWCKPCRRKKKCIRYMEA

B1: FF0 competitor (dsDNA)
DNA 1: TGGTACGATCCTTTGATCTTGCCGCCAGTCGTACAC
DNA 2: GTGTACGACTGGCGGCAAGATCAAAGGATCGTACCA
B2: AK6 competitor (dsDNA)
DNA 1: TACGATAAGATCAAAGGTGCAGTGCCGCCAGTCGTA
DNA 2: TACGACTGGCGGCACTGCACCTTTGATCTTATCGAC
B3: RW0 competitor (dsDNA)
DNA 1: TGGTACGATAAGATCAAAGGTGGCGGCGTCGTACAC
DNA 2: GTGTACGACGCCGCCACCTTTGATCTTATCGTACCA
B4: KK6 competitor (dsDNA)
DNA 1: TACGATCCTTTGATCTTTGCAGTTGGCGGCGTCGTA
DNA 2: TACGACGCCGCCAACTGCAAAGATCAAAGGATCGTA

Molecular target: T1, TCF/Pangolin HMG + C-clamp fragment
Assay: competition EMSA; labeled AK6 probe; 10 mM Tris-HCl pH 7.5, 50 mM KCl, 1 mM DTT, 50 mM MgCl2 (so in the source), 0.05% NP40, 3.5% glycerol, 50 ug/ml poly(dIdC); 6 pmol protein, 0-2.4 pmol competitor, 20
Details: protein: recombinant, tags: His (pET52b(+), XmaI/SacI), blunt

Binder	IC50 [nM]	IC50 (printed reverse strand is mismatched at its last 2 nt (atcgac vs atcgta)) [nM]
B1	9.4	
B2		5.1
B3	189	
B4	99.7	

— article PMC4154663, “Bipartite Recognition of DNA by TCF/Pangolin Is Remarkably Flexible and Contributes to Transcriptional Responsiveness and Tissue Specificity of Wingless Signaling”
